From US12527821B2, “Compositions and methods related to tumor cell killers and vaccines” (THE BRIGHAM AND WOMEN'S HOSPITAL, INC., priority 2018, dated 2026)

Columns and labels:
[1] = system: 293 Ts engineered with LV-IFNβ/zeo-HSV/TK; assay: Cell viability after GCV treatment; format: cell-based
[2] = system: rGBMnDR4/5-ST-TK-GF1; assay: Intracranial implantation of sECM-encapsulated rGBMnDR4/5-ST-TK-GF1 in SCID mice, growth and GCV clearance (BLI); format: in vivo
Description: (1) Nodular recurrent GBM resection model: Local retention of therapeutic cells can be achieved by encapsulation of therapeutic cells into biodegradable synthetic extracellular matrix (sECM) before implantation into the resection cavity (16).

[3] = system: rGBMi2-TK cells; assay: GCV-induced clearance of HSV-TK engineered rGBM in vitro (cell viability); format: cell-based, human; settings: in comparison to controls
Description: Cell viability and caspase assays: Tumor cells were plated in 96-well plates and treated with different doses of S-TRAIL for 24 hours and different doses of GCV for up to 96 hours. Cell viability was measured using an ATP-dependent luminescent reagent (CellTiter Glo, Promega) for non-Fluc expressing cells, or with luciferin or coelenterazine for Fluc- and Rluc-expressing cells, respectively. Caspase activity was determined using a DEVD-aminoluciferin assay (Caspase-3/7 Glo, Promega) according to the manufacturer's instructions. Experiments were performed in triplicate.

[4] = system: rGBMi2-ST-TK; assay: 18F-FHBG PET imaging of GCV-induced cell clearance; format: in vivo, mice; settings: after 10 days of daily GCV treatment
Description: PET imaging: Mice implanted intracranially with rGBMi2-TK-GF1 were fasted for 4 hours before imaging, anesthetized with 2% isoflurane and 100% oxygen, and injected with 500 μCi of 18F-FHBG via the tail vein. Two hours later, a static dataset was acquired for 60 minutes in 1 bed position (FOV 4.2 cm) using an energy window of 250-700 keV for each mouse. Images were reconstructed using a 2D OSEM algorithm with 2 iterations and 16 subsets. For measuring the mean and maximum standardized uptake values (SUVmean and SUVmax) and metabolic tumor volume (MTV), three-dimensional (3D) regions of interest were drawn over the mouse brain, and uptake values were measured using the explore Vista software (GE Healthcare). The maximum intensity projection images were generated using ImageJ. After the baseline PET scan at day 0, mice were treated daily with GCV (10 mg/kg) and imaged again by PET at day 10 after GCV treatment.

[5] = system: CT2a-GMCSF-mIFNaR1KO engineered with LV-IFNβ/zeo-HSV/TK; assay: Cell viability after GCV treatment; format: cell-based, mouse
Description: FIG. 2A details the concept to test if CT2a-IFNaR1-KO can be engineered with LV-IFNβ/zeo-HSV/TK.

[6] = system: rGBMiDR4/5-ST-TK; assay: GCV titration of DR4/5 knockout line with HSV-TK in vitro; format: cell-based, human; settings: as opposed to non-TK control lines
Description: (§1) Thus, should tumors acquire a DRL-resistant phenotype during adjuvant clinical therapy and tumor recurrence, TK-induced bystander effect of therapeutic self-cells might still provide robust treatment efficacy.
(§2) Lentiviral transductions and engineering of stable cell lines: Lentiviral packaging was performed by transfection of 293T cells as previously described (73), and cells were transduced with lentiviral vectors at M.O.I of 2 in medium containing protamine sulfate (2 μg/ml). For bioluminescence imaging, cancer cells were transduced with LV-Pico2-Fluc-mCherry, LV-Pico2-Rluc-mCherry, or LV-Pico2-Fluc-GFP and selected by FACS using a BD FACSAriaTM Fusion cell sorter or puromycin selection (1 μg/ml) in culture. GFP or mCherry expression was visualized by fluorescence microscopy. […] Cell viability was measured using an ATP-dependent luminescent reagent (CellTiter Glo, Promega) for non-Fluc expressing cells, or with luciferin or coelenterazine for Fluc- and Rluc-expressing cells, respectively. Caspase activity was determined using a DEVD-aminoluciferin assay (Caspase-3/7 Glo, Promega) according to the manufacturer's instructions. Experiments were performed in triplicate. […]

[7] = system: rGBMnDR4/5-ST-TK; assay: as above; format: cell-based, human; settings: as opposed to non-TK control lines
Description: as §1, §2

[8] = system: panel of different cancer cell lines; assay: Screen of receptor-targeted ligands/antagonists on a panel of cancer cell lines; format: cell-based, human; settings: 72 hours after treatment; versus TSP, Nb, IL24
Description: To investigate the therapeutic efficacy of receptor-targeted molecules, the Inventors tested a panel of different cancer cell lines for their susceptibility to treatment with cell surface receptor ligands/antagonists targeting CD36 (thrombospondin-1, TSP), epidermal growth factor receptor (EGFR) (EGFR-blocking nanobody, Nb), heterodimeric interleukin 20 receptor (IL20R) comprised of subunits α and β (interleukin 24, IL24), and DRs (TRAIL) (FIG. 6 C). A nodular (n) and an invasive (i) GBM cell line (Gli36Δ-EGFR and GBM8, respectively) were screened and found to be DR ligand (DRL)-sensitive(s) (herein referred to as sGBMn and sGBMi). […]
as §2, with “For bioluminescence imaging, cancer cells were transduced with LV-Pico2-Fluc-mCherry, LV-Pico2-Rluc-mCherry, or LV-Pico2-Fluc-GFP and selected by FACS using a BD FACSAriaTM Fusion cell sorter or puromycin selection (1 μg/ml) in culture.” left out, “instructions.” for “instructions. Experiments were performed in triplicate.”

[9] = system: PC3 (sPCm); assay: TRAIL sensitivity screen/titration (cell viability); format: cell-based, human
Description: (§3) To investigate the therapeutic efficacy of receptor-targeted molecules, the Inventors tested a panel of different cancer cell lines for their susceptibility to treatment with cell surface receptor ligands/antagonists targeting CD36 (thrombospondin-1, TSP), epidermal growth factor receptor (EGFR) (EGFR-blocking nanobody, Nb), heterodimeric interleukin 20 receptor (IL20R) comprised of subunits α and β (interleukin 24, IL24), and DRs (TRAIL) (FIG. 6 C). A nodular (n) and an invasive (i) GBM cell line (Gli36Δ-EGFR and GBM8, respectively) were screened and found to be DR ligand (DRL)-sensitive(s) (herein referred to as sGBMn and sGBMi). The following non-GBM cancer lines were also identified as DRL-sensitive: PC3 (sPCm), Jurkat (sTCL), HCT116 (sCC), and MDA231-BrM2a (sBCm). […] In addition to the above DRL-sensitive(s) cell lines, three DRL-resistant (r) GBM cell lines were identified (GBM23, GBM64, GBM46, herein referred to as rGBMi1, rGBMi2, rGBMi3) (FIG. 6D). Based on these findings, DR4 and DR5 were chosen as the most suitable candidates to further investigate the therapeutic potential of receptor self-targeted therapies.
(§4) Lentiviral transductions and engineering of stable cell lines: Lentiviral packaging was performed by transfection of 293T cells as previously described (73), and cells were transduced with lentiviral vectors at M.O.I of 2 in medium containing protamine sulfate (2 μg/ml). For bioluminescence imaging, cancer cells were transduced with LV-Pico2-Fluc-mCherry, LV-Pico2-Rluc-mCherry, or LV-Pico2-Fluc-GFP and selected by FACS using a BD FACSAriaTM Fusion cell sorter or puromycin selection (1 μg/ml) in culture. GFP or mCherry expression was visualized by fluorescence microscopy. […] Cell viability was measured using an ATP-dependent luminescent reagent (CellTiter Glo, Promega) for non-Fluc expressing cells, or with luciferin or coelenterazine for Fluc- and Rluc-expressing cells, respectively. Caspase activity was determined using a DEVD-aminoluciferin assay (Caspase-3/7 Glo, Promega) according to the manufacturer's instructions. Experiments were performed in triplicate. For treatments with conditioned medium, plasmid vectors coding for secretable expression of CD36-targeting ligand 3TSR (a functional thrombospondin-1, TSP-1 analog) (09), EGFR-blocking ligand NB (12), IL-20Rα/β-targeting ligand IL-24 (69), and DR ligand S-TRAIL (69) were transfected into 293T cells. Medium was changed the next day, collected 40 hours after transfection, and frozen at −80° C. until further use.

[10] = system: Jurkat (sTCL); assay: as above; format: cell-based, human
Description: as §3, §4

[11] = system: MDA231-BrM2a (sBCm); assay: as above; format: cell-based, human
Description: as §3, §4

[12] = system: Gli36Δ-EGFR (sGBMn); assay: as above; format: cell-based, human; settings: nodular GBM cell line
Description: as §3, §4

[13] = system: GBM64 (rGBMi2); assay: as above; format: cell-based, human
Description: as §3, §4

[14] = system: GBM23 (rGBMi1); assay: as above; format: cell-based, human
Description: as §3, §4

[15] = system: GBM8 (sGBMi); assay: as above; format: cell-based, human; settings: invasive GBM cell line
Description: as §3, §4

[16] = system: HCT116 (sCC); assay: as above; format: cell-based, human
Description: as §3, §4

[17] = system: GBM46 (rGBMi3); assay: as above; format: cell-based, human
Description: as §3, §4

Molecule: Nc1nc2c(ncn2COC(CO)CO)c(=O)[nH]1 [GCV, Ganciclovir]
- cell-viability after GCV-treatment [1]: dose-dependent reduction of cell-viability
- time to drop of BLI signal back to baseline ([2]; after initiation of GCV therapy): ≤ 9 days
- GCV-induced (HSV-TK mediated) cell clearance ([2]; mouse, in vivo): successful cell clearance
- elimination of rGBMi2-TK cells [3]: dose- and time-dependent elimination
- tumor-specific PET signal intracranially [4]: no longer visible
- cell-viability after GCV-treatment [5]: dose-dependent reduction of cell-viability
- cell elimination by GCV [6]: dose-dependent cell elimination
- cell elimination by GCV [7]: dose-dependent cell elimination

B1: TNF-related apoptosis-inducing ligand (protein, listed as Homo sapiens)
chain: MAMMEVQGGPSLGQTCVLIVIFTVLLQSLCVAVTYVYFTNELKQMQDKYSKSGIACFLKEDDSYWDPNDEESMNSPCWQVKWQLRQLVRKMILRTSEETISTVQEKQQNISPLVRERGPQRVAAHITGTRGRSNTLSSPNSKNEKALGRKINSWESSRSGHSFLSNLHLRNGELVIHEKGFYYIYSQTYFRFQEEIKENTKNDKQMVQYIYKYTSYPDPILLMKSARNSCWSKDAEYGLYSIYQGGIFELKENDRIFVSVTNEHLIDMDHEASFFGAFLVG
notes: death receptor (DR4/5) ligand used to treat cancer cell lines
- efficacy in comparison to the other tested ligands [8]: most effective agent
- susceptibility to DR ligand (DRL) [9]: DRL-sensitive
- susceptibility to DR ligand (DRL) [10]: DRL-sensitive
- susceptibility to DR ligand (DRL) [11]: DRL-sensitive
- susceptibility to DR ligand (DRL) [12]: sensitive
- susceptibility to DR ligand (DRL) [13]: DRL-resistant
- susceptibility to DR ligand (DRL) [14]: DRL-resistant
- susceptibility to DR ligand (DRL) [15]: sensitive
- susceptibility to DR ligand (DRL) [16]: DRL-sensitive
- susceptibility to DR ligand (DRL) [17]: DRL-resistant
